The test has as its target T1, Antigen SdW1a (free peptide) (Homo sapiens).
T1 construct: Synthetic peptide derived from DBY/DEAD; A KLH-conjugated form (SdW1b) was also used in screening; also called the antigen; 22-mer peptide
T1 peptide: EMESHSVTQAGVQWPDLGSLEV
Nature of the test: supernatant ELISA on the antigen, hybridoma supernatant. As for the experimental part: Screening: Hybridoma cells were grown for 10 days at which point the number of positive hybridoma colonies was determined and after a further 3 days' incubation an aliquot of antibody supernatant was taken for screening. The supernatant was assayed for reactivity to the antigens SdW1a (free peptide—SEQ ID NO. 347) and SdW1b (KLH-peptide), firstly by antigen microarray using an IgG-specific secondary antibody, followed by supernatant ELISA to confirm any positive antibody-producing clones.

B1: monoclonal antibody SdW1 RE5.B7.F9b (antibody, mouse IgG2a, V domains shown)
VH: EVKVEESGGGLVQPGGSMKISCVASGFTFKNYWMNWVRQSPEKGLEWVAEIRSKSNNNEKHYAESVKGRFTISRDDFKSSVYLQMNNLRTEDTGIYYCTGGTFDYWGQGTTLTVSS
VL: DVVVTQTPLSLPVSLGDQASISCRSSHSLVHSDGNTYLHWYLQKPGQSPKLLIYKVSNRFSGVPDRFSGSGSGTDFTLKISRVEAEDLGVYFCSQTTHVPPYTFGGGTQLEIK
notes: Tested as hybridoma culture supernatant; also called clone RE5; RE5 antibody
Regarding B1, the binding result was “binds”.

The values above are taken from patent publication US20230133281A1 (CHROMOXYION, published 2023).
